The target of assay [1] is T1, human TGF-β1 (human, UniProt P01137 279-390).
T1 construct: also called TGF-β1 (ACRO, TG1-H4212); free TGF-β protein
The experiment in a line: ELISA, TGF-β1 coated at 0.5 µg/ml, HRP anti-human IgG detection, OD450.
Experimental: (§1) After washing with PBST, into the plates was added HRP-labeled anti-human IgG secondary antibody (1:5000 dilution) at 100 μl/well, reacted at room temperature for 30 min, and then washed with PBST. After developing with TMB color development solution for 5 min, the reaction was terminated with sulfuric acid, and OD450 value was read by a microplate reader.

The target of assay [2] is T2, Human LAP (human, UniProt P01137 30-278).
T2 construct: domain: LAP; also called precursor of TGF-β1 (Human LAP)
The experiment in a line: SPR (BIAcore), HB0028 captured on Protein A chip, TGF-β protein as analyte. Background: In SPR one partner is held on a chip, and binding of the other changes the refractive index at the surface.
Experimental: (§2) Flow rate: 30 μl/min, binding: 120 s, dissociation: 600 s, analyzing the kinetic constants by Fit local using a 1:1 binding mode.

In assay [3] the target is T3, Mouse precursor TGF-β1 (mouse, UniProt P04202 30-390, limits assumed).
T3 construct: Latent/precursor form as printed; also called Mouse Latent TGF-β1
T3 sequence (P04202 30-390 limits assumed): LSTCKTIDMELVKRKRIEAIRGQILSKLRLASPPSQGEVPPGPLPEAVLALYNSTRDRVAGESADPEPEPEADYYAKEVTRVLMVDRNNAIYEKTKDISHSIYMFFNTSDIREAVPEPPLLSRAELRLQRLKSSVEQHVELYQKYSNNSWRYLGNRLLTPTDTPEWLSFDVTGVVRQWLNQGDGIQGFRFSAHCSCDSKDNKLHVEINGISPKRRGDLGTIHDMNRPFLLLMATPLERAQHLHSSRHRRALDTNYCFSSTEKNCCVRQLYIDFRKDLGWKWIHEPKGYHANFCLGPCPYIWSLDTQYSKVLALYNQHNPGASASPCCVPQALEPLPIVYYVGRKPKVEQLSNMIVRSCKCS
The assay is described as above.
Experimental: as §2

The target of assay [4] is T4, Rat PD-L1 (rat, UniProt D4AE25 19-239).
T4 construct: also called PD-L1 in rats
T4 sequence (D4AE25 entry or part of it limits assumed): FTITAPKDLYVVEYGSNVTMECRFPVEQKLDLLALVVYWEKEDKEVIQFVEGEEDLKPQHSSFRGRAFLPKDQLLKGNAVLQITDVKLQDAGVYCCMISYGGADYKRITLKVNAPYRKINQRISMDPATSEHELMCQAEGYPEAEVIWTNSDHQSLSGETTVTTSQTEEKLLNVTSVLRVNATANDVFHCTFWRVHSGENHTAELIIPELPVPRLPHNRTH
Briefly: SPR (BIAcore), HB0028 captured on anti-human IgG (Fc) chip, PD-L1 as analyte.
Experimental: as §2

Assay [5] addresses T5, Rabbit PD-L1 (rabbit, UniProt G1SUI3 19-236).
T5 construct: also called PD-L1 in rabbits
T5 sequence: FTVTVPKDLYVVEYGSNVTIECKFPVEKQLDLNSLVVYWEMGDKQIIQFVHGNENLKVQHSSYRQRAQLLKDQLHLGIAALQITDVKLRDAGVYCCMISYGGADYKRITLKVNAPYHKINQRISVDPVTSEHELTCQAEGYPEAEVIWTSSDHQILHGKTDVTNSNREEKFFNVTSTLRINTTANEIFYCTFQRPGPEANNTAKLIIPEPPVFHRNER
The assay is described as above.
Experimental: as §2

The target of assay [6] is T6, Mouse PD-L1 (mouse, UniProt Q9EP73 19-238, limits assumed).
T6 construct: also called PD-L1 in mice
T6 sequence (Q9EP73 19-238 limits assumed): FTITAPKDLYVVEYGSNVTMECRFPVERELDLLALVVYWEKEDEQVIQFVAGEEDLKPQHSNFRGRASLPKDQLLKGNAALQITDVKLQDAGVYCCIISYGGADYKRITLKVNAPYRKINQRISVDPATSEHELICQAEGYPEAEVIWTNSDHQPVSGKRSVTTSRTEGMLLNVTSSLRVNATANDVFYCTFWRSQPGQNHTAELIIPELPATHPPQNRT
Described as above.
Experimental: as §2

Assay [7] deals with Mouse/Rat TGF-β1 (mouse/rat, UniProt P04202 279-390). Briefly: SPR (BIAcore), HB0028 captured on Protein A chip, TGF-β protein as analyte, 1:1 fit.
Chain of Mouse/Rat TGF-β1 (P04202 279-390 limits assumed): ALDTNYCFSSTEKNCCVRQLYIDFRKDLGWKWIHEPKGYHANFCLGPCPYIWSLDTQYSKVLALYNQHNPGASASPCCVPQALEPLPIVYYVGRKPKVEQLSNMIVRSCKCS
Experimental: as §2
Assay [8] concerns the target T7, Human TGF-β2 (human, UniProt P61812 303-414).
T7 sequence (looked up): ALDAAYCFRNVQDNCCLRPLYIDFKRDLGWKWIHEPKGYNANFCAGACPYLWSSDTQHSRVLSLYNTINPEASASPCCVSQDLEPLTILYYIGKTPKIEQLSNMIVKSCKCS
The assay is described as above.
Experimental: as §2

Assay [9] addresses T8, Mouse/Rat TGF-β2 (mouse/rat, UniProt P27090 303-414).
T8 sequence (looked up): T7 sequence (looked up) with S59T, R60K, K94N
The description is as above.
Experimental: as §2

For assay [10], the target named is T1, human TGF-β1. The assay is described as above.
Experimental: as §2
The target of assay [11] is Human PD-L1 (BIAcore analyte) (human, UniProt Q9NZQ7 19-238, limits assumed). The experiment in a line: SPR (BIAcore), HB0028 captured on anti-human IgG (Fc) chip, PD-L1 as analyte, 1:1 fit.
Chain of Human PD-L1 (BIAcore analyte) (Q9NZQ7 19-238 limits assumed): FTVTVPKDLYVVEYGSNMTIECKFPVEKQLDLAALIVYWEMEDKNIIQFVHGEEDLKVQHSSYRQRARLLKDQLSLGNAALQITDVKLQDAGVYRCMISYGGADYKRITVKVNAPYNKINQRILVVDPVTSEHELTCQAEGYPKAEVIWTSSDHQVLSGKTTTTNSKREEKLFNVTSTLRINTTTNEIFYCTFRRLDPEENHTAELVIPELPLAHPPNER
Experimental: as §2
The target of assay [12] is T9, Monkey PD-L1 (monkey).
T9 construct: also called PD-L1 in monkeys
Described as above.
Experimental: as §2

The target in assay [13] is T10, human PD-L1 on CHO-K1 cells (human, UniProt Q9NZQ7 19-290).
T10 construct: whole, on cells; also called CHO-K1 cells overexpressing human PD-L1; CHO-K1-OS8-PD-L1-8D6 cells
T10 sequence (Q9NZQ7 19-290): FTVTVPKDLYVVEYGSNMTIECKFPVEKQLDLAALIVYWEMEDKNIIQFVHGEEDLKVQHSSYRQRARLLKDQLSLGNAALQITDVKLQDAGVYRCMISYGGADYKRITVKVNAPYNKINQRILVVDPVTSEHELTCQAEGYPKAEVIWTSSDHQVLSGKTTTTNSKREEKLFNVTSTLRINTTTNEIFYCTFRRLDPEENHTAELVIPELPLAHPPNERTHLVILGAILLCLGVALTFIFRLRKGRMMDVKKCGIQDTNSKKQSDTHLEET
The experiment in a line: flow cytometry on CHO-K1 cells overexpressing human PD-L1, PE anti-human IgG detection, median fluorescence intensity. On the technique in general: A flow cytometer gives signals particle by particle.
Experimental: CHO-K1 cells overexpressing human PD-L1 were taken and resuspended to 1×10⁶/ml and added into a 96-well plate at 20 μl/well.

The target of assay [14] is T10, human PD-L1 on CHO-K1 cells. The experiment in a line: dual-target flow cytometry: sample pre-mixed with 3 µg/ml human TGF-β1, then CHO-K1 cells overexpressing human PD-L1, detection with PE anti-human TGF-β1 antibody (signal needs PD-L1 and TGF-β1 bound at once).
Experimental: After then, CHO-K1 cells overexpressing human PD-L1 were taken and resuspended to 1×10⁶/ml, added into a 96-well plate at 20 μl/well, and incubated for min after being mixed uniformly. The plate was washed twice by centrifugation with 1% BSA-PBS. Into each well was added 20 μl of PE fluorescence labeled anti-human TGF-β1 secondary antibody (1:100), incubated at room temperature for 15 min, washed three times by centrifugation, and then tested for the emission intensity at 580 nm by a flow cytometer Canto II (BD).
The target of assay [15] is T11, human TGF-β3 (human, UniProt P10600 301-412).
T11 construct: also called TGF-β3 (R&D, 8420-B3-025)
T11 sequence (looked up): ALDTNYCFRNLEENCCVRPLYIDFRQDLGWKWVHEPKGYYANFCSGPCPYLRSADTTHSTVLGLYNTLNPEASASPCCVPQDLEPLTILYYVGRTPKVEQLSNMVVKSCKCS
The experiment in a line: ELISA, TGF-β3 coated at 0.5 µg/ml, HRP anti-human IgG detection, OD450. (In general: ELISA stands for enzyme-linked immunosorbent assay.)
Experimental: as §1

Data on three molecules can be found in patent US20240026004A1 (SHANGHAI HUAOTA BIOPHARMACEUTICAL, published 2024).

Substitutions are numbered along the chain they refer to.

T1 sequence (P01137 279-390 limits assumed): as the sequence (P04202 279-390 limits assumed) above, with S75A counted along it
T2 sequence (P01137 30-278 limits assumed): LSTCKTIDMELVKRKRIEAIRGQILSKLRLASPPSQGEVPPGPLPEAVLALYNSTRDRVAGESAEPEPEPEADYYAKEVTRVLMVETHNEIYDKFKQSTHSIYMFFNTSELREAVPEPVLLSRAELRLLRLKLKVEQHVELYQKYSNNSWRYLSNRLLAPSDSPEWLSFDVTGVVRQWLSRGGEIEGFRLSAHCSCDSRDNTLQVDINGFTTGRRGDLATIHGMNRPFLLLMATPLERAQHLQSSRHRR

B1: TGFβRII (Fc fusion)
chain: TIPPHVQKSVNNDMIVTDNNGAVKFPQLCKFCDVRFSTCDNQKSCMSNCSITSICEKPQEVCVAVWRKNDENITLETVCHDPKLPYHDFILEDAASPKCIMKEKKKPGETFFMCSCSSDECNDNIIFSEEYNTSNPD
In the case of B1, the EC50 in assay [1] worked out at 0.652 nM.

B2: HB0028 (bispecific antibody, human IgG1, kappa)
heavy: not shown
light: DVVMTQTPLSLSVTPGQPASISCKSSQSLANSYGNTYLSWYLHKPGQSPQLLIYGISNRFSGVPDRFSGSGSGTDFTLKISRVEAEDVGVYYCLQGTHQPPTFGQGTKLEIKRTVAAPSVFIFPPSDEQLKSGTASVVCLLNNFYPREAKVQWKVDNALQSGNSQESVTEQDSKDSTYSLSSTLTLSKADYEKHKVYACEVTHQGLSSPVTKSFNRGEC
notes: also called N-fusion PD-L1/TGF-β bispecific antibody; heavy chain 500054 + light chain 400085
As for B2, the binding result in assay [2], in [3], in assay [4], in assay [5] and in assay [6] was “no binding” each time. Besides, the concentration for a half-maximal effect (EC50) amounted to 0.347 nM in [1], 3.77 nM in assay [13] and 4.22 nM in [14]. Besides, the equilibrium dissociation constant (Kd) in [7] was 0.00275 nM; in assay [8], 1.56 nM; in assay [9], 1.97 nM; in assay [10] it was 0.0114 nM; in assay [11], 2.45 nM; in assay [12], 5.87 nM.

B3: HB0029 (bispecific antibody, human IgG1, kappa)
heavy: not shown
light: B2 light
notes: Heavy chain from N to C: VH of HB0023, wild-type human IgG1 constant region, GS linker, human TGF-βRII ECD 24-159; Same light chain as HB0028; also called C-fusion PD-L1/TGF-β bispecific antibody; heavy chain 500055 + light chain 400085
On to B3, for which the concentration for a half-maximal effect (EC50) in [1] came to 0.955 nM; in [15], 1.51 nM; in assay [13], 1.85 nM; in assay [14], 1.61 nM.

What is called EC50 is the concentration at which the effect is half-maximal. For orientation: Kd means the constant that tells how readily two partners part at equilibrium.
